Here are results for 15 sequences from a protein production outcome set (Wang et al. 2014).
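Also: failed if final PepcDB status was selected cloned or expressed and not failed if soluble or beyond.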

A short description of this data set: label from the status in PepcDB records.
Turning to “MKMTAKMRREFPTAFLLLFLVPVMIPVGEAVWLDVPPTGTKCVSEEIQSNVVVLADYLIISEDHEVMPTISVKVTSPYGNNLHNMENVTHGQFAFTTQESGNYLACFWADEKSHGNKNVSINIDWRTGIAAKDWASIAKKEKIEGVELEIRKLEGAVEAIHENILYLRNREADMRTMSEKTNSRVAWYSIMSLGVCIAVSGFQVLYLKQYFEKKKLI”, the protein production entry is given as “failed”. On to “MTTKRVKKMGKEEMKEMFDLVIYAFNQEPTAERQERFEKLLSHTQSYGFLIDEQLTSQVMATPFQVNFHGVRYPMAGIGYVASYPEYRGEGGISAIMKEMLADLAKQKVALSYLAPFSYPFYRQYGYEQTFEQAEYTIKTEDWPRVKRVPGTIKRVSWADGKEVIKDVYLENQRAHSGGVIRETWWLDYTLNRASKPNNQAIYYSSEGKAEGYVIYRIAAGTFEIVEWNYLTNTAFKALAGFIGSHSGSVQSFHWINGFAGKDLNDLMPTPAASVKILPYMMARIVELQTFLEKYPFQSGEKETYSLEIEDSYGPWNEGIWTITIDEQGKATVTKGAAEKEGTAALKADIQTWTQLFLGYRSAETLSFYERLQGDATIAQRLGQRLVKGMPILEDYF”, for which the protein production result is reported as “not failed”. For “MFRVTGTLSAASSPAVAAASFSAALRLSITPTLAIASPPHLRWFSKFSRQFLGGRISSLRPRIPSPCPIRLSGFPALKMRASFSSGSSGSSASREILVQHLLVKNNDVELFAELQKKFLDGEEMSDLAAEYSICPSKKDGGILGWVKLGQMVPEFEEAAFKAELNQVVRCRTQFGLHLLQVLSEREPVKDIQVEELHSKMQDPVFMDEAQLIDVREPNEIEIASLPGFKVFPLRQFGTWAPDITSKLNPEKDTFVLCKVGGRSMQVANWLQSQGFKSVYNITGGIQAYSLKVDPSIPTY”, the protein production entry is on record as “failed”.

As to “MDSLTSLTSFVRTAETLSFVQAARLLGISASAVGKNVARLEHKLGVRLFNRSTRNVSLTAEGAAFLTRCQSILEQIQEAESELTSSLSQPTGKLRISLPVIGYRLLLPALTAFSRLYPQVELDLDFSDRLVNLIDEGVDVAIRSGELADSRLIARKLGGFRFVLCASPAYLAEYGAPDSPAELAAHKCIFFRFPATGLIQPWELRGMRLTGDFRSAAVMTVNNIEAAIRLSAAGMGIAYVPDFVVREAMDEGQLQEVLPGCCIKDGHFSVLWPASRYLSPRIRCFIDFMAAAEIPLSPASAPPPLVSNNLR”, the protein production entry is “failed”. As for “MKEIRIILMGTGNVGLNVLRIIDASNRRRSAFSIKVVGVSDSRSYASGRNLDISSIISNKEKTGRISDRAFSGPEDLMGEAADLLVDCTPASRDGVREYSLYRMAFESGMNVVTANKSGLANKWHDIMDSANQNSKYIRYEATVAGGVPLFSVLDYSILPSKVKRFRGIVSSTINYVIRNMANGRSLRDVVDDAIKKGIAESNPQDDLNGLDAARKSVILVNHIFGTEYTLNDVEYSGVDERSYNANDRLVTEVYVDDRRPVAVSRIISLNKDDFLMSIGMDGLGYQIETDSNGTVNVSDIYDGPYETAGAVVNDILLLSKVQK”, the protein production result is recorded as “failed”. For “MRMPDRTDVCVLLPTLNESETIGDVVGGFYDHGFEHVLVVDGDSTDGTRAIAREHGARVITQSGSGKGQAVREGVEQIDQPYVLMADGDGTYRPEDADKMLTPLFAGRAEHVIGDRFADMEAGAMTRLNAVGNRLINRLFATIHGRDLQDILSGYRAFTTQSFERSKLSADGFGIETELAVECVRRGVSTAVVPIRYEARPGGSETNLHPLKDGGRILLTLYRLARMNNPIFYFGSVAAVGTAGGVALGAFVGYRYLTAGVSHEVLALLAAFLVLLSVQLLMFGVLSDIIVSIHREQTRRLDDIADQLEEQNDE”, the protein production result is given as “failed”.

With “AQNEKNMYSYKKIGNKYIVSINNHTEIVKALNAFCKEKGILSGSINGIGAIGELTLRFFNPKTKAYDDKTFREQMEISNLTGNISSMNEQVYLHLHITVGRSDYSALAGHLLSAIQNGAGEFVVEDYSERISRTYNPDLGLNIYDFER”, the protein production result is given as “not failed”. Take “MKSVFHLWRSHMRHLNDMALFVEVARARSFRKAAEALGMPNSTLSRRVSELEKAIGLRLLHRTTRKIELTEAGQLYYERSKRIVDEARLAHEQLGAMLNQPSGVLRVSLPVNLATFYLTPIIGEFARHYPGITFEFDLTPRRVDLVAEPFDVAIRIGKLEDSGLITRLIGRHSRHLYASPGYIEASGEPATPAELAEHECIGMLRSPIWSLHQGINKVDVAVRGRFTLNSVGMIRALAVNHQGIALLPEKIVAEDVAFGRLRRILPEWQGSAVSIFAVTETRLIPAKTQRFIEFLSSRLMEA”: the protein production result was “failed”. For the sequence “MILFDGMYSLGGVILSLLALMGSIYINKKDYEKYPFGKKMIEPLIVIIKSLAIFIMCIYSLTGSIKDLINGGNEVQYGYALIYALISTLGCGIAYFFLKKKGKAINSSLINIESSQWLMDALLSMGVLVGFLIANIIKHTEFIWFNRYLDPLMVIICSSVFIKMPIKSFGDGLKELLEFKADDSITLEIDKLVEGIEREYNFEDTITRVSKTGNDLRIEIDFIYNEESNIKALDEMDSLREKIFNSLSHINYEKWLNVSFTKDKKWAI”, the protein production result was “failed”. Take “MLLGSCWRIARGVETVPYPWPKWLPIPVLATTVGVAAVVIGVRQLGLLQPSELSLYDFYVRSQPPRDPDSRILTVLVTEQDIQAQKTWPLPDATVAELLTRLNAASPRAIGLDIFRDLPQPPGHDELQNMIRINPRIIPVCKSPGETVEQPEVPPPPSIPTAQVPERVGFADIPLDSDGVIRRNLFVINNPKAQRCTTPFSFALMLALRYLEQDPSQTIKLDDKGLTLNDVHFPLLTSDAGGYVAVDDRGMQTLLKYRSRTAVGPTVSLTDVLTGRVSEDLIRDRVVLIGVSAPSIKDTFLTPYSGSDAVTQQMPGVVVHGQMVSQFLSAALEGEGPIWYWPVPLVLGWILLWAGVGSILGWWLRQPLWLGGAVVGGIIVLFGGGFGIFVMASGWIPVVPPAIALVLSSVGMVGYVSYQAQQEQKSFREKVQEQEKALALLRSLMAEDTAALNAALREPTEITGKPRSLLSGRYKIQKVLGSGGFGRTYLAQDTQRPGNPLCVVKHLRPGRTDERFMQVARRLFNTEAEILEKLGRHDQIPLLLAYVEENREFYLVQEFIDGVSLSEELKRKHTEAEAIQLLREILEVLNFVHSHYVIHRDIKPDNIIRRASDRKLVLIDFGAVKQIQPQEAERTQGSTVVIGTMGYAPPEQLSGQPTLSSDIYAVGMIVLQALTGIKPRDLPRDPRTGEVDWQQCVTVSEGLAVVLNKMVKFNFSDRYPSAKEALQDARRLGTPAASVS”: the protein production result is recorded as “failed”.

With “MSKLAQIVQKLKKQGIEAAVLSDPVSINYLTGFYSDPHERLMFLFLFADQEPLLFLPELDALRAKSILDISVTGYLDFENPLEKIKTLLPKTNYSKIALEFDNLNVTKFKGLETIFSGQFTNLTPLINRMR”, the protein production result is “not failed”. Under “MCRGPLGSYESLTRPSFAFIVISPSATLLTHAPGSQEPHVSRHNRRRSTLHKRATVFGGGTVAVAAVVATVNIASADQVSPTPRTASKADHAVFVQGNELAGNTIHVFRRGDDGKLTAAGKYATGGKGGDQVDAPTDSLASQGSLVYDRRSGRLLALNAGSGTLTSYAVHGQKLTDRQTVPTGGDFPVGIAVSGDLAYVMNAGGAGSVQGFRITTMGLKPLSGSLRTLGLKNEKVPLFSSSPGQAAFTPDGRNLVVTTKSANTVEVFPIGRDGRPAHKPVVNKSAGMVPFAIAFDKTGRMLVAEAAESTVSTYKVRRNGELQVLQKPLPNGQDTLCWLERAGDFFYGGNTGNSTVSGYRMDARGRLALTNEAGIAAAPSAKSQGVIDIAVAADKFVYVQNATSGTVDGFRVGRTGALTKVTTVTDLPAFAESGMEGIAAV” stands “failed”; under “MAAVPPENGVDGDDEREEEEEDEEEEEEEEEEENGDEAEEEPRLKYQRMGGNVPALLSNDAASCIAVAARMIALGTHDGTVRILDLLGNQVKEFRAHTAPVNDINFDTEGEYIGSCSDDGSVVINSLFTDDEKMKFDYHRPMKAISLDPDYTKKQSKRFVAGGLAGHLYMNSKKWFGNKDQVLHSGEGPIHSVKWRGSLIAWANDVGVKVYDTAKDQRVTFIEKPRGSPRPEALLPHLVWQDDTLLVIGWGTSVKIASIKSDQQQTGTFRQIQMSSLTQVDIVASFQTSYYISGIAPFGDSLVILAYIPIEGDGEKEFSSTTTLSRQGNAQRPEIRIVSWNNDELTMDALPVHGFEHYKAKDYSLAHAPFPGSSYAGGQWAAGDEPLYYIVSPKDVVIAKPRDAEDHINWLLQHGFHEKALAAVEASEGRTELIDKVGAGYLDHLIVERKYAEAASLCPKLLRGSASAWERWVFHFAQLRQLPVLVPYMPTDNPRLKDTVYEVALVALATNPSYHKELLSAVKSWPRSVYSALTVISAIEPQLNTSSMTDALKEALAELYVIDGQYQKAFSLYADLLKPEVFDFIEKYSLHEAIRGKVVQLMLLDCKRATVLFIQNRDLIPPSEVVPQLLKAGKNPQVLKAGKKCDSRYYLYLYLHALFEVSHDTGKDFHDMQVELYAEYDTKMLLPFLRSSQHYKLEKAYELCVKKDFLREQVFVLGRMGNAKQALAVIINKLGDIEEAVEFVSMQHDDDLWEELIKQCLNKPEMVGLLLEHTVGNLDPLYIVNMVPNGLEIPRLRDRLVKIVTDYRTETSLRHGCNDILKTDIVNLLVKCFNEARRGVCLSHEDDDSRAKREDNNRSSFSQRMVVDKSLSIKMTEVKSKTRGDTRCCMCFDPVSIRGDTVVVFFCCHAYHETCLMDAAFSNNNHKTTKGSSGYEYSYDNGVDEEEEDEEEDEDGDGDRPGRSRLRCILCTTAAAASAR”, “failed”; under “MNSPWETESGDRRVESGAGVSVGGRGQSRPRSCSIKAAEGKKGRSSACAPRWRLRSALLREDRCRSAPRIPRGCFSPRAPWRGGNSCAHCPRPRSGRPETGRAWGSRRAPRRGRPPAHGAPRPLPGLPRAASDRWAPARTSLIFILCPRGCLLLSARTLGIPWQPTSLRSRPTSLSPASCATQRASSWACSSASIETRPLNFFISYDAPPLRTRTIKLLVTFLVEEVSRNGAAKQEQFQETLYFTHLPRDKRLQKELLALQNDPPPGMTLNEKSVQNSITQWIVDMEGAPGTLYEGEKFQLLFKFSSRYPFDSPQVMFTGENIPVHPHVYSNGHICLSILTEDWSPALSVQSVCLSIISMLSSCKEKRRPPDNSFYVRTCNKNPKKTKWWYHDDTC”, “failed”. Regarding “MLAILGFVMMIVFMYLIMSNRLSALIALIVVPIVFALISGFGKDLGEMMIQGVTDLAPTGIMLLFAILYFGIMIDSGLFDPLIAKILSFVKGDPFKIAVGTAVLTMTISLDGDGTTTYMITIRAMLPLYKRLGMNRLVLAGIAMLGSGVMNIIPWGEPTARVLASLKLDTSEVFTPLIPAMIAGILWVIAVAYILGKKERKRLGVISIDHAPSSDPEAAPLKRPALQWFNLLLTVALMAALITSLLPLPVLFMTAFAVALMVNYPNVKEQQKRISAHAGNALNVVSMVFAAGIFTGILSGTKMVDAMAHSTRSLIPDAMGPHLPLITAIVSMPFTFFMSNDAFYFGVLPIIAEAASAYGIDAAEIGRASLLGQPVHLLSPLVPSTYLLVGMAGVSFGDHQKFTIKWAVGTTIVMTIAALLIGIISF”, the protein production entry is “failed”.
